{"source": "paper PMC12085566", "biological_target": "BG505 SOSIP.664 Env trimer (HIV-1 (isolate BG505))", "assay": "cryo-EM structure", "data": [{"substance": "4-domain CD4 (receptor)", "values": [{"measurement": "stoichiometry N (molecules per Env)", "result": 3}]}]}
